According to the Immune Epitope Database (IEDB):

Assays:
[1] = molecular target: HLA-A*24:02; assay: IEDB peptide-MHC binding, purified MHC/competitive/fluorescence; ≥ and ≤ were set here for values at or beyond the usual limits of such assays; conditions: source organism: Homo sapiens
[2] = molecular target: HLA-B*14:02; assay: as above; conditions: source organism: Homo sapiens
[3] = molecular target: HLA-B*08:01; assay: as above; conditions: source organism: Homo sapiens
[4] = molecular target: HLA-A*01:01; assay: as above; conditions: source organism: Homo sapiens
[5] = molecular target: HLA-B*51:01; assay: as above; conditions: source organism: Homo sapiens
[6] = molecular target: HLA-B*53:01; assay: as above; conditions: source organism: Homo sapiens
[7] = molecular target: HLA-B*44:03; assay: as above; conditions: source organism: Homo sapiens
[8] = molecular target: HLA-A*25:01; assay: as above; conditions: source organism: Homo sapiens
[9] = molecular target: HLA-B*18:01; assay: as above; conditions: source organism: Homo sapiens
[10] = molecular target: HLA-A*29:02; assay: as above; conditions: source organism: Homo sapiens
[11] = molecular target: HLA-A*03:01; assay: as above; conditions: source organism: Homo sapiens
[12] = molecular target: HLA-B*37:01; assay: as above; conditions: source organism: Homo sapiens
[13] = molecular target: HLA-B*58:01; assay: as above; conditions: source organism: Homo sapiens
[14] = molecular target: HLA-B*07:02; assay: as above; conditions: source organism: Homo sapiens
[15] = molecular target: HLA-A*11:01; assay: as above; conditions: source organism: Homo sapiens
[16] = molecular target: HLA-A*31:01; assay: as above; conditions: source organism: Homo sapiens
[17] = molecular target: HLA-A*68:02; assay: as above; conditions: source organism: Homo sapiens
[18] = molecular target: HLA-B*40:02; assay: as above; conditions: source organism: Homo sapiens
[19] = molecular target: HLA-B*35:01; assay: as above; conditions: source organism: Homo sapiens
[20] = molecular target: HLA-A*02:01; assay: as above; conditions: source organism: Homo sapiens
[21] = molecular target: HLA-B*57:01; assay: IEDB peptide-MHC binding, purified MHC/direct/fluorescence; filed as Kd, often an IC50 or EC50 that approximates it; ≥ and ≤ were set here for values at or beyond the usual limits of such assays; conditions: source organism: Escherichia coli O157:H7 str. EC869
[22] = molecular target: HLA-A*02:11; assay: as above; conditions: source organism: Escherichia coli O157:H7 str. EC869
[23] = molecular target: HLA-B*51:01; assay: as above; conditions: source organism: Escherichia coli O157:H7 str. EC869
[24] = molecular target: HLA-A*24:03; assay: as above; conditions: source organism: Escherichia coli O157:H7 str. EC869
[25] = molecular target: HLA-A*02:12; assay: as above; conditions: source organism: Escherichia coli O157:H7 str. EC869
[26] = molecular target: HLA-B*18:01; assay: as above; conditions: source organism: Escherichia coli O157:H7 str. EC869
[27] = molecular target: HLA-A*29:02; assay: as above; conditions: source organism: Escherichia coli O157:H7 str. EC869
[28] = molecular target: HLA-B*15:17; assay: as above; conditions: source organism: Escherichia coli O157:H7 str. EC869
[29] = molecular target: HLA-A*02:16; assay: as above; conditions: source organism: Escherichia coli O157:H7 str. EC869
[30] = molecular target: HLA-A*03:01; assay: as above; conditions: source organism: Escherichia coli O157:H7 str. EC869
[31] = molecular target: HLA-A*26:01; assay: as above; conditions: source organism: Escherichia coli O157:H7 str. EC869
[32] = molecular target: HLA-A*02:19; assay: as above; conditions: source organism: Escherichia coli O157:H7 str. EC869
[33] = molecular target: HLA-A*02:03; assay: as above; conditions: source organism: Escherichia coli O157:H7 str. EC869
[34] = molecular target: HLA-B*39:01; assay: as above; conditions: source organism: Escherichia coli O157:H7 str. EC869
[35] = molecular target: HLA-B*27:03; assay: as above; conditions: source organism: Escherichia coli O157:H7 str. EC869
[36] = molecular target: HLA-A*02:06; assay: as above; conditions: source organism: Escherichia coli O157:H7 str. EC869
[37] = molecular target: HLA-A*02:01; assay: as above; conditions: source organism: Escherichia coli O157:H7 str. EC869
[38] = molecular target: HLA-B*46:01; assay: as above; conditions: source organism: Escherichia coli O157:H7 str. EC869

Sequence | IC50 [1] | IC50 [2] | IC50 [3] | IC50 [4] | IC50 [5] | IC50 [6] | IC50 [7] | IC50 [8] | IC50 [9] | IC50 [10] | IC50 [11] | IC50 [12] | IC50 [13] | IC50 [14] | IC50 [15] | IC50 [16] | IC50 [17] | IC50 [18] | IC50 [19] | IC50 [20] | further results
GSSDFQVHFLK | ≥ 20 µM | ≥ 20 µM | ≥ 20 µM | ≥ 20 µM | ≥ 20 µM | ≥ 20 µM | ≥ 20 µM | ≥ 20 µM | ≥ 20 µM | 1.46 µM | 1.02 µM | ≥ 20 µM | ≥ 20 µM | ≥ 20 µM | 0.0665 µM | 1.05 µM | ≥ 20 µM | 4.59 µM | ≥ 20 µM | ≥ 20 µM | –
KVADVDLAVPV | ≥ 20 µM | ≥ 20 µM | ≥ 20 µM | ≥ 20 µM | ≥ 20 µM | ≥ 20 µM | ≥ 20 µM | ≥ 20 µM | ≥ 20 µM | ≥ 20 µM | ≥ 20 µM | 0.907 µM | ≥ 20 µM | ≥ 20 µM | ≥ 20 µM | ≥ 20 µM | 0.0243 µM | 0.745 µM | ≥ 20 µM | 0.0193 µM | –
SQFNHWFGE | – | – | – | – | – | – | – | – | – | – | – | – | – | – | – | – | – | – | – | – | Kd [21]: ≥ 20 µM; Kd [22]: ≥ 20 µM; Kd [23]: ≥ 20 µM; Kd [24]: ≥ 20 µM; Kd [25]: ≥ 20 µM; Kd [26]: ≥ 20 µM; Kd [27]: ≥ 20 µM; Kd [28]: ≥ 20 µM; Kd [29]: ≥ 20 µM; Kd [30]: ≥ 20 µM; Kd [31]: ≥ 20 µM; Kd [32]: ≥ 20 µM; Kd [33]: ≥ 20 µM; Kd [34]: ≥ 20 µM; Kd [35]: ≥ 20 µM; Kd [36]: 0.086 µM; Kd [37]: ≥ 20 µM; Kd [38]: ≥ 20 µM
